B1: Abl interactor 1 (Homo sapiens), Q8IZP0-4 (parent)
chain: MAELQMLLEEEIPSGKRALIESYQNLTRVADYCENNYIQATDKRKALEETKAYTTQSLASVAYQINALANNVLQLLDIQASQLRRMESSINHISQTVDIHKEKVARREIGILTTNKNTSRTHKIIAPANMERPVRYIRKPIDYTVLDDVGHGVKWLKAKHGNNQPARTGTLSRTNPPTQKPPSPPMSGRGTLGRNTPYKTLEPVKPPTVPNDYMTSPARLGSQHSPGRTASLNQRPRTHSGSSGGSGSRENSGSSSIGIPIAVPTPSPPTIGPAPGSAPGSQYGTMTRQISRHNSTTSSTSSGGYRRTPSVTAQFSAQPHVNGGPLYSQNSIADSPTPPPPPPPDDIPMFDDSPPPPPPPPVDYEDEEAAVVQYNDPYADGDPAWAPKNYIEKVVAIYDYTKDKDDELSFMEGAIIYVIKKNDDGWYEGVCNRVTGLFPGNYVESIMHYTD

Variants of: B1
Conditions: with Abl1, P00520-4
Sequence of Abl1, P00520-4 (P00520 other isoform, or with tags, fused parts or gaps): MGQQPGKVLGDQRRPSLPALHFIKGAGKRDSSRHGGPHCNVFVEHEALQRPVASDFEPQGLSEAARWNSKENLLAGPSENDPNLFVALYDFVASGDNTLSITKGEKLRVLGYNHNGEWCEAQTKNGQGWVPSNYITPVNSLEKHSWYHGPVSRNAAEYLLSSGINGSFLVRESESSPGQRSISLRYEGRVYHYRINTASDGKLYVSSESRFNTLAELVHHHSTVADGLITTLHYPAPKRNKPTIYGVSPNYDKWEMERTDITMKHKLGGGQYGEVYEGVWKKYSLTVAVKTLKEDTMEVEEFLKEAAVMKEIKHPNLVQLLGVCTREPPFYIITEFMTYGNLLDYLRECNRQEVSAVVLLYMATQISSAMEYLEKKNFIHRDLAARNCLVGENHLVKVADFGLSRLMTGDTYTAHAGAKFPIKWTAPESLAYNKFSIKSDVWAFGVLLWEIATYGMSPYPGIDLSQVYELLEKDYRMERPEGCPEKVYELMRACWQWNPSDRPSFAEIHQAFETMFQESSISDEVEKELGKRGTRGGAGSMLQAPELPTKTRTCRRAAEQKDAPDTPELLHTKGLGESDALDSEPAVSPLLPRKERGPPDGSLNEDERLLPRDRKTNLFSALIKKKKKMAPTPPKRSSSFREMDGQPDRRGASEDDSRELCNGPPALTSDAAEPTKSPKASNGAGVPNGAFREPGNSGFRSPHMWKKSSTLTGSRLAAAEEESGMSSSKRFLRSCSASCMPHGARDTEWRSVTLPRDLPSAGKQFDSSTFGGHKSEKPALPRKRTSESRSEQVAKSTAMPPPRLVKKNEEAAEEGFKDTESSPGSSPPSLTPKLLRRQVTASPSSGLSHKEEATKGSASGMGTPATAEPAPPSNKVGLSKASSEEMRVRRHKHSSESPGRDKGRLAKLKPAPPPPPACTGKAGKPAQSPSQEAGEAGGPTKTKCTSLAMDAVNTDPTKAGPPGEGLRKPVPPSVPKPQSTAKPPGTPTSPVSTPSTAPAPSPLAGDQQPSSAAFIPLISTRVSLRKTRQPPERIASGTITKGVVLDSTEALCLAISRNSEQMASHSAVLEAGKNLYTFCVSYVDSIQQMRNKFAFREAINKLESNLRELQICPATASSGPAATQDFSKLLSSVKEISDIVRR

effect of a mutation on the interaction	Variant
decreasing interaction	Y398F
decreasing interaction	Y213F
